From US20130071417A1 (GOVERNING COUNCIL OF THE UNIVERSITY OF TORONTO, published 2013)

T1: His-tagged rCEA A3B3 domain (residues 445-656, C-terminal His-tag) (human, UniProt P06731 479-690)
T1 construct: also called rCEA A3B3 fragment
T1 sequence: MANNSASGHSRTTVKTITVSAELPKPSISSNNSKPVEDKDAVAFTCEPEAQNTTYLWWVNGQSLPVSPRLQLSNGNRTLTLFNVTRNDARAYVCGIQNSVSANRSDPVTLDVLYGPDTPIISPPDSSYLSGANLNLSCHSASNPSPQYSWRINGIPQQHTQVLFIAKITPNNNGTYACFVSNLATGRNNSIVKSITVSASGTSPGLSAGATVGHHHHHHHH

T2: full length tumour glycoform of human CEA (Sigma-Aldrich) (human, UniProt P06731 35-685, glycosylated (tumour glycoform))
T2 construct: mature; Bought protein; also called FL-CEA; full length CEA
T2 sequence (looked up): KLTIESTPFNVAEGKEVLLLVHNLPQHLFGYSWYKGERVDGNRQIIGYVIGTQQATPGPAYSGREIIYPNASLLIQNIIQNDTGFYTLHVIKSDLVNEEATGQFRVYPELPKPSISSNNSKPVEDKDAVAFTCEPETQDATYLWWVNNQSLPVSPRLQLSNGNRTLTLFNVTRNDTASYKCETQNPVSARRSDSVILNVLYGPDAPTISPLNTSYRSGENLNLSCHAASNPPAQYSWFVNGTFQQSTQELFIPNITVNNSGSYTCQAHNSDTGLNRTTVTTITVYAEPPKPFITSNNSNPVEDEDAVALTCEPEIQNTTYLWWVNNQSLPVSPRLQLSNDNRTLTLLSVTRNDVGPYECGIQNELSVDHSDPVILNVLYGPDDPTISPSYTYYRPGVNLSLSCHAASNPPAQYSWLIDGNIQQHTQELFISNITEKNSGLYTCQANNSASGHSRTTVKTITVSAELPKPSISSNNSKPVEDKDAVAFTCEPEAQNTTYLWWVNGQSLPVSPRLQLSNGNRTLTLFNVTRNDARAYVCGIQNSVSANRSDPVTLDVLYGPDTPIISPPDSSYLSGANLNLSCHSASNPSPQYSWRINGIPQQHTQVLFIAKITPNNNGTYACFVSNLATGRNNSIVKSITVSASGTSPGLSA

B1: untagged rCEA N domain (cleaved rCEA N, residues 1-132) (other)
chain: KLTIESTPFNVAEGKEVLLLVHNLPQHLFGYSWYKGERVDGNRQIIGYVIGTQQATPGPAYSGREIIYPNASLLIQNIIQNDTGFYTLHVIKSDLVNEEATGQFRVYPELPKPSISSNNSKPVEDKDAVAFT
notes: Made in E. coli, so it has no N-glycans; also called WT rCEA N domain; untagged WT rCEA N domain
B2: FLAG-tagged rCEA N (CEA residues 1-214 with His-tag and FLAG epitope) (other, human, UniProt P06731 35-248, looked up, not shown: small tags and cut ends)
chain: KLTIESTPFNVAEGKEVLLLVHNLPQHLFGYSWYKGERVDGNRQIIGYVIGTQQATPGPAYSGREIIYPNASLLIQNIIQNDTGFYTLHVIKSDLVNEEATGQFRVYPELPKPSISSNNSKPVEDKDAVAFTCEPETQDATYLWWVNNQSLPVSPRLQLSNGNRTLTLFNVTRNDTASYKCETQNPVSARRSDSVILNVLYGPDAPTISPLNTS
notes: range 1-214; Made in E. coli; The extra C-terminal CEA residues were added for stability and yield; also called FLAG-tagged rCEA N domain; FLAG-tagged N domain

Assays:
[1] = biological target: T1, His-tagged rCEA A3B3 domain (residues …); assay: ELISA; untagged rCEA N coated, His-tagged module in solution, anti-His HRP detection
[2] = biological target: B2; assay: ELISA; target coated (2 µg per well), FLAG-tagged rCEA N titrated, anti-FLAG M2 HRP detection
Method: (§1) Briefly, 96-well flat-bottomed Falcon microtiter plates (Becton-Dickinson Biosciences; Franklin Lakes, N.J.) were coated with 2 μg of purified CEA modules or full length CEA per well. After blocking with PBS containing Tween (0.05% v/v) and bovine serum albumin (1% w/v), the plates were then incubated for one hour at room temperature with increasing concentrations of the FLAG-tagged rCEA N diluted in PBS-Tween (0.05%; 100 μL). The presence of bound FLAG-tagged rCEA was detected by incubating the plates for 1 hour at room temperature with horseradish peroxidase (HRP) coupled anti-FLAG monoclonal antibody M2 (1:5,000 dilution; Sigma-Aldrich). The chromogenic HRP substrate 3,3′,5,5′-tetramethylbenzidine (TMB; Sigma) was used to measure at 450 nm the amount of bound FLAG-tagged N domain.

[3] = biological target: T1, His-tagged rCEA A3B3 domain (residues …); assay: as above
Method: as §1

[4] = biological target: T2, full length tumour glycoform of human …; assay: as above
Method: as §1

Row | binding result [1] | binding result [2] | binding result [3] | binding result [4] | Binder
1 | binds | binds | – | – | B1
2 | – | – | binds | binds | B2
